Data reported in the NTF2 design screens of Basanta et al. (2020).

Experiment: protease stability score; higher = more stable; yeast display proteolysis, trypsin and chymotrypsin;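 also: relative to predicted unfolded state with 0 unfolded-like and 1 meaning tenfold more protease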

Sequence	protease stability score
SEIEEEIEQAYKLTKHHWETGDEKDIRRNADPHVRVYFNGREYHGWEVLHEVLRLMGAKHVEIHRYEIQGEYVHIDSEVRQGDKRFRMHVESYKVNGRWFIETVFIK	0.749
DHDDEESKHWLEFYLEIVQTGDEDSHKRLADPNTRLHIDGQVMHGREFMTMWFRHLVSKFKNARVEIRLRDTRKINGRVELDVELIFRVGDKEERREVQIFADKVDGRWHIKEFVVH	2.22
SEEEEENRKRVEFFKKVWETGDEHSMEELMDPNVRLRIVVNGRHEHYHGREEVVHILQDELRKIKNVKVNLKRIDVVDGRAHSDIHVDQGDWRMKMEVILIKVNGRWRMKELELHVI	1.78
DEEEQRIEEMLKKWLEAMETGDEDLEKQLADPNVRFHIGDKEHVGREELSQVKKRLGIKVMILHDERVDRQGDWIVMHLDIILEFDGRRFRVRFNLFVEKIDGRWLVKKVEIHLR	0.936
SEEEHMLEAFFEDVLQLVMTGDEHRLKHLFDPNVRVETEHEHFHGRELFLQRMLEIRIHDFHIHDFEVQGDKAHVDGRVEGTIDGRTNHWTFTLILEKIDGRWLANKVTWH	1.55
DEEKEISKKATEILISILRTGDEDVMREYLDPHVRIDFNGKQLHGMDYLWRLLKHMRLRSLDVHSFHFVDGVIEVDSRSDGEVNGQRTDYHFHFIIEKVNGKWWLHKVKFE	1.64
DEETRDIIHILKLLWDAIRTGDEEAIRRLLDPDMRIQVGDKEIHGREEFLKEISHWRYDLESFHIKHVDVINGVAIIHLHIVGRFHYDGRTYHDSYEEDVFIFKVNGRWHFHQIKYR	1.84
SEVERLLREILKLVQHAYETGDEETITELVDPHARMDINGKELHGRDMLHLLLRRIDHEHMRVEMKSVEIQGEWAISRGEEQVHVHVNGKKFDLVINSRVVLHKVDGQWVVRSLFYK	0.787
DEQERAYELALRTIEHDLRTGDEKSLQENADPNTRLLVGDKELVGWELFIKLMREIRIRHIEVRHMEVQGNKLIFDGKVDGEIGDKRVEYETEIILEKVDGQWRIKEKRLH	0.862
TEIKHHVKEMADLFLENLLTGNEDILKKLMDPNALLVVGNKHIHGWEEMIKQWKDVRRHMRIEHVETEDIELQGDKAHIHVNIFGQINGKRKESHVRIHFEVFDGVLRRVEIDER	1.18
DEHTKFLEKLLRDWMESVLTGDEHLIKRYADPNVRLDFNGQQFHGRDSMVHLLKEWRIKHFKLDSFFAIDGVTFVDGESRGEVNGQETENRLHVEIFVVNGKVTHVKIRIL	1.68
DEREELDEHWFRLQFQAMETGDENLVRDNLDPHVKVVVGDKEFVGRHYAIRLFHDLGVDHLVKKSEDRQGEKVIVHGRLDIGDKRHEIVLIIRKIDGKWVVHEIIIR	1.35
SEDEEDFERAMKLLMHDIRTGNEESLNRLFDPNVKININGKELWGREKWIEFLERVDHLDVHDMKIRHLDIQGEKVRAEVHIDRRIKIGDKETRVKVDIRMIAVKVNGRWLLREISVE	2.1
SEEEESSKYAIELLRKVVETGDWRLIQRLADPHAKIEQGDKRLHGRETVTKHLIELGIDHIKFRDSRVQGDKVELDGEVDVNGQHRDTHILIEKIDGVWVWRRFEIK	0.97
HETKHLVDKFIELFKHNLETGDWDRLLELADPRTRVHVGDKTLIGMHEFRELHLRLIEKHGIKLNYYVHEVHVQGDKAHVDNEREEDYNGRVVSFRIRMHVEKFDGRWYLTRIEFN	1.33
SEWEEISRKISRDWTEWLETGDFETFMNYVDPNARYRQGDKDLHGMETLHRYIYHMRMHIRIRRIDHQGDYILIDGELELRQGDKTHRFESIIYIIVIDGKLRRFEIRER	0.733
SEDEELLRESVRIFREAMRTGDEEFSERMIDPNVRIHIGDKEYIGREWASEWHKRLGIKHSRFRHIEIQGDFMIADVENKVGDKHIQVEYWRHKINGRWIIESIKVH	1.55
DDEERDVLRIMRIVLKLWKTGNEEKYEHLLDPDVRMEVDGRNLHGRETVSHWLHRLREEIRIDDYKIETVRAQGNKSILHVRTDGIINGQEVRLTEEITIIVINGRIQTFSIHRH	0.628
DEEEKEAKHASERINHDFLTGDWKSLEKLADPETRLIVNGRDFHGRERVLHELVRFYHELGVNHFRIRDIRVIGNKIHVDNQIDVGEKHNEMHVISSKVNGRWVLHTVELN	1.23
DEEEKEDHKMLHDFIHLWLTGDEEDWSHLADPRTRLILIQGDKVIDRHGMELASEELRRILEEMRVDDFKVEHVEVINGKSKVHGKTDVTFNGKREIIDIHIELHVVNGRMKTVKMVWI	0.927
SEEEKHWEDLVEHLHQIWLTGDEDTLRHRLDPNMRMDIDGKELHGRESIIEEIRRLGVDHVETKRKHSQGDKAHFDLIIRIDGKEHKMEIVIVVVNGKLKEVVLRRK	1.1
HEEEEWFKEVLHEVERLLMTGDWRTLVELLDPNVRININGVEYHGREEAHHKLEETFRRLGFDHIHFQHVEHQGEKVIVHLEVRFNGQSSIIRFVVLKVNGRWFNHSLQIN	1.29
DDETEHLEKSVRDLVTSIKTGNWEEFYKMFDPNMRVDINGQQYHGRENAVEMVRQLWERLGAKHVHLTEIRYYGDKLELIMHVHFDGRDKEEEYIAVKIDGRWLLTEVRFK	2.08
DEEEHTAHVAHKLWEDSLHTGNEDNHRKLLDPHARIIVNGRLLHGWEDVEKILKDLGIKVMHMELERIKVVGDKLRIVGHLETRFDGRTIRLREELVVRKFNGRWHIEEINIL	1.24
SEEEEETRKFAHDLVNIHRTGDERKINDLFDPHVRVHIGNKEIVGRELFARWMHEFLLKHGFTEEIRIDDVDLYGNKAHIDGTLIIRINGVEHRHRVELIVNKINGKWLMEYVRVR	1.6

Sequence	protease stability score
HEQEKFVREYFELWVRAFLTGDEDTILDMMDPDVRIIYGDKTVVGWKELHKFLKRVDHARIKFEFRNTRYDENEAEVDGHRIVHLFFDGKIFDITTQIHVHMVKIDGVWTMKTIVNK	1.55
HEEEKEIEKWVRLLLEVIQTGDEHWFERMADPNARVEVGEFEKHGRELFFEMTVRIVKKLGVDHVQLRRFDLIDGVALDHMELRIGDKHVEFIHISSKVNGRWFDKEVRVREI	0.939
DQEERIAHKVAEFFLHALLTGDERLLTEYFDPHVRIIIHINGVEIRYHGREEWVEWLRDILRRFDVVRFHIRDIRNIGNKSIVHSEHREHVNGKSRSTRTELLIDVVDGRIHEVEIRIE	1.44
DEEDEHFEEVLRRTRHVWKTGDWRRLHELFDPNTRIHVNGRDVIGREEASRIIYEMLRQADHFHYRIRRFEIQGDKIHSEIEVIIIVNGRLIRLDTHVVAIKVNGRWVIESEEIR	1.48
DHEDEHSEEMEQLIFTWLQTGDWEAFMKFLDPRVILHIGDKTVIGREKFIEFIEQFKNIRMKIHDVQVQGNKIHIDVRTDIDGREYREHIHIHIVNGRIRHIEVRHH	1.92
DEDTRMNELFVRLFYELLTTGDEEHIHEMFDPHARLDFDGQQYHGREDAVRKMHELSRRLGIKHIEIREFRKVGDWANLHGKIYVNGQEYELHVILHKVDGRWITRDIRIK	1.3
SDEEELYEILLEIELKSAMTGDWRNLKDLLDPDTRIHFNGVEIHGREHAEKHLKRYDVDKIEDVRYRDMRFQGDKARVHGEVRILLQFDGRRMEIDTTIQVINYKVNGVWIIESLHFE	1.24
DEHEEYMEELVKSIYTLWKTGDEDTLLSLFDPNMRILIDGVDAVGRENFKEEFRRFKEEIRHKDHKIHHIDIQGEKIRTEVLVHGIWDGVDTTLHVEIRIVVINGRVKSIEFHFT	1.74
DEEEEIVMKNARDLIHLTQTGDFEKQRHLLDPHVLVVLVQGDKRIEQHGWHFWKYLMKEIRIKHIRIDHVEAQGNKAQVRGTVDGNINGRDTHWEFELTFVFIDGRIRTIDIRID	1.4
EEDEKTAEEMMHIWIKYLMTGNEERLYKLVDPNARIEFNGRTDHGRESFTKFLRELGIKHSHIEEIRWDVQGEKVILTLHGRLDVNGVDRSNEILIIAEKVNGRWRVESVHLHLR	1.27
SEEERQLHEFAELIVHDLLTGNFELLSSLLDPHARMEINGKRFHGWTQILDILHRIWLHLRIRDRQVRRVEVYNGRINSRIEVDGEINGRRISLDELLILVVVDGRIRSESIHFE	1.03
SEHDESIHRHFEKIHESIRTGDEELLRKFLDPNTLLVNEDEKVVGWEQWVEQVRRHLTELGAKHVSFSLHDRRFFDGRLHLDSRVIIEIGDKRLSLETEVINLKFNGRWIITSLTSS	1.14
REDKKDAEDIIRWLLRAWHTGDPRDVEKMMDPNTLSDINGQKIHGREDVSRFNEFILRHARVEVDVHSMEVYGNYLHVDERFTLRIGDKEIRTETHIIIIKVNGRWLVQTISYG	0.782
DDEERDLKRAYELWVHNMLTGNWRMLNYLADPNTKIEFENHKSHGRESLHELLKRLGVDHMHIELEDMHFVGDKIILHTREEHRVGDKEIRTEVHIDARKINGRWRLQSVHFR	0.97
DEDHEIAKKASDIWWHILRTGDEDQLHKMMDPHVRTTVGDKEHHGREAVEHLTHFYKNMQIHVTHERFHVQGDKVHVEREGHLRIGDKRVEVRVRIEIHKVDGKWIIHTIEMELR	0.425
DEDTHEFRHFIELRRHNLETGNERALAELLDPNVRILFDGVDIVGRDSWIKHLRELGYEQVDSRVNIKRLEIWNGRAHMDGRVRRHFDGKTTEVDVHLVLVKFNGRWVIESIHNH	0.555
DEEEREARDAVHRFDKDVVTGDEDRLRELMDPNVKLDIGDKEIIGREYMVSFWRELVKHIRIHSITIKRVEVYDGRIHVHQEVTLNIDGQHVTIKSHTIALKVNGKWTWTRFSMT	1.06
SEETKEKHDFVEEWRHFLETGDEHELTRMIDPNVRVIINGQEHHGREAFEEMLKRIDVIHHVVIRKERSINGVIRLNFEVDGVINGRRHRTEFHIIVLKINGRWLIHQISIH	2.04
SEDDEDLKFAWDHLLRSWLTGNFDFFKEMFDPHTRLEQGEKEHHGRNAFERYLRELGIDHIKNIHIEDVEIQGDKMRLHGRQHIFVNGREINLEVTYIILKINGQWHLHRVRIK	0.846
SELEHDARNAEHWFEETFRTGDEEDRERLLDPHVLVEFNGREYIGWHVFQKFFNDLGVDHMEVRIHDSKVFNGRVHLDGELTIRQGDKLIRSHVHLILTKVDGRWRMREIRIH	1.73
DESEELAKQFMEVLARSMRTGDEEKIVKMLDPNVKVVINGVELHGREALEHILREIRVEDVWLTHIFVQGEKVRIDYREKGEFNGRLDTLTVHIIVKKIDGKWKITEFRIH	1.89
DEEHEHAKRAVKKTLTDYYTGDEDSISDLADPNVIQDVGDKEYHGREEFLRSMHKIIKWLGVDHIEVHRVHLINGRVFSRLRLEVDGREVELIIIILKINGRWHWHSMRIIHR	1.03
DEEEKDIRKALEWFWESFKTGDEDSVRKMLDPDTRIIYGDKEHHGRENASRFIHELKRRMGIKHTEIRLNSMEVQGDKVSFYTILILRFDGREIRIETHIEARKVDGRWFTTSIEFH	1.42
DHTKKMAEEALRDFWRDFRTGDEDSLNKMADPNVRILIGDKEVVGRERMVELFREVLKKYKNARVITDIEDLDDQGNWVHSDVRFHLHVGDKTVDIEREIVMRKVNGRWYIETHVVK	0.397
TEDEEAAERMIKTWLEKIITGNEEFLTEFMDPDTKVDINGKELHGWEDILQHLRHIRVHDMHVEIEDVRFINGVIEIRGTMHKDGEVNGRRTQTEQHVVFVLQKIDGRWRLRSYSIR	2.27
